From US20230017515A1 (JIANGSU ALPHAMAB BIOPHARMACEUTICALS, published 2023)

Biological target: T1, human PD-L1 (WT) (human, UniProt Q9NZQ7 19-127, limits assumed)
T1 construct: also called human PD-L1 N-terminal IgV domain
Assay: affinity measurement, method not stated

T1 sequence (Q9NZQ7 19-127 limits assumed): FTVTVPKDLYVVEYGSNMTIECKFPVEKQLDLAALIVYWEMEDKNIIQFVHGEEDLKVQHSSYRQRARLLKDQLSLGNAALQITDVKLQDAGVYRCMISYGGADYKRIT

B1: PD-L1 ISVD-9 (VHH)
VHH: QVQLVESGGGLVQPGGSLRLSCAASGKMSSRRCMAWFRQAPGKERERVAKLLTTSGSTYLADSVKGRFTISRDNSKNTVYLQMNSLRAEDTAVYYCAADSFEDPTCTLVTSSGAFQYWGQGTLVTVSS
notes: also called ISVD specific for PD-L1; aPDL1.9
  Kd: 5.92 nM
